Measured values taken from patent US12365732 (23ANDME, dated 2025).
One block for each binder: values may come before it.

What was measured:
[1] = target: T1, hu-CD96 isoform 1 on HEK293T cells (human, UniProt P40200 22-585); assay: FACS, Ab 0.08 nM
T1 construct: Origene RC213845, transient expression; also called HEK293T-CD96 (iso1)
T1 sequence: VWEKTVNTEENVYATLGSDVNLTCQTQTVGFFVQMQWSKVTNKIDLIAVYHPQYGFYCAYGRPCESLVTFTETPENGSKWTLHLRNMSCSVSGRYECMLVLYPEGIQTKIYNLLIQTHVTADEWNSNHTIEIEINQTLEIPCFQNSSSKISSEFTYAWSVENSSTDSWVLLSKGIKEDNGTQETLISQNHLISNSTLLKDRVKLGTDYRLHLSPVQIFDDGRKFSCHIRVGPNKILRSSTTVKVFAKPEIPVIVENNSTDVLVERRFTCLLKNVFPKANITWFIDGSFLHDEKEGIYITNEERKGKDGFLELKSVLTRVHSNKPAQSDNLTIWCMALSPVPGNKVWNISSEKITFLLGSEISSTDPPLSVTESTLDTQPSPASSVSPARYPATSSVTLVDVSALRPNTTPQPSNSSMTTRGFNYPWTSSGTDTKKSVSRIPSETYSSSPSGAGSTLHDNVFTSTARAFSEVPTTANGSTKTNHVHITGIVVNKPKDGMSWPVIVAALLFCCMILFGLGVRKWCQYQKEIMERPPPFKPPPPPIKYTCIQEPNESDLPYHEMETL
Protocol: Isoform 1 of hu-CD96 (Origene, catalog #RC213845) was transiently expressed in HEK293T cells following standard lipofectamine or Fugene transfection protocol. […] Cells were washed, and binding was detected by incubation with anti-mouse IgG-FITC (Biolegend, catalog #406001) for 20 minutes at 4° C. Cell binding was analyzed by flow cytometry with a CytoFLEX (Beckman Coulter). Binding curves were calculated as a percentage of cells positive for bound antibody.

[2] = target: T2, cy-CD96 (soluble, extracellular domain) (cynomolgus monkey, UniProt P40200 22-516 (human entry), biotinylated in Octet and blocking ELISA); assay: phage competition ELISA, soluble CD96 vs coated hu-CD96
T2 construct: the assays name only cy-CD96; also called biotinylated cy-CD96
T2 chain: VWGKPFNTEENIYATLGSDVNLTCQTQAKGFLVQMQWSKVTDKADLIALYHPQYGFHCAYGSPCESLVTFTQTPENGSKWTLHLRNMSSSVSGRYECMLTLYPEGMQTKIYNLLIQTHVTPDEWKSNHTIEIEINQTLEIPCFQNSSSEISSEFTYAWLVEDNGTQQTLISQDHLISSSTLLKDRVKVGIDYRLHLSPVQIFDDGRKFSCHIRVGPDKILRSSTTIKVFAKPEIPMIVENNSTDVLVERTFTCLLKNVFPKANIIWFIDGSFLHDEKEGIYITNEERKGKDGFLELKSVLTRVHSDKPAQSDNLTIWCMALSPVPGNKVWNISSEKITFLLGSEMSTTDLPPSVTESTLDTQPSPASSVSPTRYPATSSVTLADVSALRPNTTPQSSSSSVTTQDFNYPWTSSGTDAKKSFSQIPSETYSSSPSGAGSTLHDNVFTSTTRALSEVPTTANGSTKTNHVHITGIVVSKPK
Protocol: 192 colonies from most stringent selections (biotinylated 0.1 nM of hu-CD96 or cy-CD96 with 1000× non-biotinylated human or cy-CD96) were grown in 400 µL 2YT with 4 µL helper phage M13KO7 overnight at 37° C. with shaking. After spinning down the pellet, the phage supernatant was diluted 1:1 with 2 nM hu-CD96, 20 nM cy-CD96 and ELISA buffer (0.5% BSA and 0.05% TWEEN®20 in PBS) in total […] and incubated for two hours at room temperature with agitation. The […] of mixture was transferred to hu-CD96 coated plate for 15 min to capture unbound phage. The plate was washed with wash buffer (0.05% TWEEN®20 in PBS), and HRP-conjugated anti-M13 antibody (Sino biological, Cat #11973-MM05-H-50) was added in ELISA buffer for 30 min. […] Enzymatic color development was stopped using TMB stop solution (VWR, Cat #95059-200). Plates were analyzed with a SpectraMax i3X plate reader (Molecular Devices). The % inhibition was calculated by the $OD450$ of wells with hu-CD96/cy-CD96 competitor divided by $OD450$ of wells with buffer alone. The lower % inhibition indicated higher phage $IC50$ against hu-CD96 or cy-CD96.
Selected top inhibition % phage variants from single spot competition were purified from culture supernatants. The optimal phage concentration was incubated with serially-diluted hu-CD96 or cy-CD96 in ELISA buffer in NUNC F plate for two hours. The […] of the mixture was transferred to hu-CD96 coated wells for 15 min to capture unbound phage. The plate was washed with wash buffer (0.05% TWEEN®20 in PBS), and HRP-conjugated anti-M13 antibody (Sino biological, Cat #11973-MM05-H-50) was added in ELISA buffer for 30 min. The plates were washed and developed as described above. The absorbance at 450 nm was plotted as a function of antigen concentration in solution to determine phage $IC50$.

% positive [1]: 1.5%
B1: 9H4, purified hybridoma antibody (antibody, V domains shown)
VH: EVQLLETGGGLVKSGGSLKLSCAASGFTFSDYYMYWVRQTPEKRLEWVAAISDDGTYTYYPDSVKGRFTISRDNANNYLYLQMSSLKSEDTAIYYCAKAGSYDYFDVWGAGTTVTVSS
VL: DIVLTQSPASLAVSLGQRAIISCKASQSVTFADTGLMHWYQQKPGQQPKLLIYRASNLEVGVPTRFSGSGSGTDFTLNIHPVEEEDVATYYCQQSREYPWTFGGGTKLEIK
notes: murine hybridoma IgG

% positive [1]: 8.5%
B2: 7E5, purified hybridoma antibody (antibody, V domains shown)
VH: QVQLKESGPGLVAPSQSLSIICTVSGFSLTNYGIHWIRQPPGKGLEWLGIIWAGGSTNYNSALMSRLTISKDNSKSQVFLKMNSLQTNDTAIYYCARVSMMGFAYWGQGTLVTVSA
VL: QAVVTQESALTTSPGETVTLTCRSSTGAVTTSNYANWVQEKPDHLFTGLIGGTNNRAPGVPARFSGSLIGDKAALTITGAQTEDEAIYFCSLWYGSHWVFGGGTKLTVL
notes: murine hybridoma IgG

IC50 [2]: 0.37 nM
B6: mAb1.v7.9 Fab (Fab, V domains shown)
VH: EVQLVQSGAEVKKPGASVKVSCKASGFTFTNNWRHWVRQAPGQGLEWIGMIHMNSGITNINEKFKNRVTMTTDTSTSTAYMELRSLRSEDTAVYYCRSDGVYEGYFDYWGQGTLVTVSS
VL: DIQLTQSPSSLSASVGDRVTITCKASQNVGTAIVWYQQKPGKAPKVLIYSASTRYTGVPSRFSGSGSGTDFTLTISSLQPEDFATYYCQQYSSSPLTFGQGTKVEIK
notes: also called M34R/P52aM/T97V

IC50 [2]: 1.6 nM
B8: mAb1.v7.16 Fab (Fab, V domains shown)
VH: EVQLVQSGAEVKKPGASVKVSCKASGFTFTNNWRHWVRQAPGQGLEWIGMIHPNSGITNINEKFKNRVTMTTDTSTSTAYMELRSLRSEDTAVYYCRSDGVYEGYFDYWGQGTLVTVSS
VL: DIQLTQSPSSLSASVGDRVTITCKASQNVGTAIVWYQQKPGKAPKVLIYSASTRYTGVPSRFSGSGSGTDFTLTISSLQPEDFATYYCQQYSSSPLTFGQGTKVEIK
notes: also called M34R/T97V

% positive [1]: 16.5%
B9: 10G1 (clone 10G1.3G8), purified hybridoma antibody (antibody, V domains shown)
VH: QIQLVQSGPELKKPGETVKISCKASGYPFTTYGMSWVKQAPGKGLKWMGWINTDSGVPTYADDFKGRFAFSLETSANTAYLQINSLKNEDAATYFCARNIYYGWGNFDYWGQGTILTVSS
VL: DILMTQSPTTLSVTPGETVSLSCRASQDIYRNLHWYQQKSQGTPRLLIKHASDSISGIPSRFTGSGSGTDFTLSINSVKPEDEGIYYCLQGYSMPYTFGGGTKLEIK
notes: murine hybridoma IgG

More lines, now with the values behind:

B3: mAb1.v7.2 Fab (Fab, V domains shown)
VH: EVQLVQSGAEVKKPGASVKVSCKASGFTFTNNWRHWVRQAPGQGLEWIGMIHFNSGITNINEKFKNRVTMTTDTSTSTAYMELRSLRSEDTAVYYCRSDGVYEGYFDYWGQGTLVTVSS
VL: DIQLTQSPSSLSASVGDRVTITCKASQNVGTAIVWYQQKPGKAPKVLIYSASTRYTGVPSRFSGSGSGTDFTLTISSLQPEDFATYYCQQYSSSPLTFGQGTKVEIK
notes: also called M34R/P52aF/T97V
IC50 [2]: 1.8 nM

B4: mAb1.v7.70 Fab (Fab, V domains shown)
VH: EVQLVQSGAEVKKPGASVKVSCKASGFTFTNRWMHWVRQAPGQGLEWIGMIHANSGITNINEKFKNRVTMTTDTSTSTAYMELRSLRSEDTAVYYCRSDGVYEGYFDYWGQGTLVTVSS
VL: DIQLTQSPSSLSASVGDRVTITCKASQNVGTAIVWYQQKPGKAPKVLIYSASTRYTGVPSRFSGSGSGTDFTLTISSLQPEDFATYYCQQYSSSPLTFGQGTKVEIK
notes: also called N32R/P52aA/T97V
IC50 [2]: 0.4 nM

B5: mAb1.v7.48 Fab (Fab, V domains shown)
VH: EVQLVQSGAEVKKPGASVKVSCKASGFTFTNRWMHWVRQAPGQGLEWIGMIHHNSGITNINEKFKNRVTMTTDTSTSTAYMELRSLRSEDTAVYYCRSDGVYEGYFDYWGQGTLVTVSS
VL: DIQLTQSPSSLSASVGDRVTITCKASQNVGTAIVWYQQKPGKAPKVLIYSASTRYTGVPSRFSGSGSGTDFTLTISSLQPEDFATYYCQQYSSSPLTFGQGTKVEIK
notes: also called N32R/P52aH/T97V
IC50 [2]: 0.3 nM

B7: mAb1.v7 IgG (humanized 12F8) (antibody, V domains shown)
VH: EVQLVQSGAEVKKPGASVKVSCKASGFTFTNNWMHWVRQAPGQGLEWIGMIHPNSGITNINEKFKNRVTMTTDTSTSTAYMELRSLRSEDTAVYYCRSDGTYEGYFDYWGQGTLVTVSS
VL: DIQLTQSPSSLSASVGDRVTITCKASQNVGTAIVWYQQKPGKAPKVLIYSASTRYTGVPSRFSGSGSGTDFTLTISSLQPEDFATYYCQQYSSSPLTFGQGTKVEIKG
notes: human IgG1 N297G
% positive [1]: 0.8%
